Test results as given in US7056508 (NEW YORK UNIVERSITY, dated 2006).

B3: murine receptor-type protein tyrosine phosphatase-κ (RPTPκ) precursor protein (receptor)
chain: ALGQFSAGGCTFDDGPGACDYHQDLYDDFEWVHVSAQEPHYLPPEMPQGSYMVVDSSNHDPGEKARLQLPTMKENDTHCIDFSYLLYSQKGLNPGTLNILVRVNKGPLANPIWNVTGFTGRDWLRAELAVSTFWPNEYQVIFEAEVSGGRSGYIAIDDIQVLSYPCDKSPHFLRLGDVEVNAGQNATFQCIATGRDAVHNKLWLQRRNGEDIPVAQTKNINHRRFAASFRLQEVTKTDQDLYRCVTQSERGSGVSNFAQLIVREPPRPIAPPQLLGVGPTYLLIQLNANSIIGDGPIILKEVEYRMTSGSWTETHAVNAPTYKLWHLDPDTEYEIRVLLTRPGEGGTGLPGPPLITRTKCAEPMRTPKTLKIAEIQARRIAVDWESLGYNITRCHTFNVTICYHYFRGHNESRADCLDMDPKAPQHVVNHLPPYTNVSLKMILTNPEGRKESEETIIQTDEDVPGPVPVKSLQGTSFENKIFLNWKEPLEPNGIITQYEVSYSSIRSFDPAVPVAGPPQTVSNLWNSTHHVFMHLHPGTTYQFFIRASTVKGFGPATAINVTTNISAPSLPDYEGVDASLNETATTITVLLRPAQAKGAPISAYQIVVEQLHPHRTKREAGAMECYQVPVTYQNALSGGAPYYFAAELPPGNLPEPAPFTVGDNRTYKGFWNPPLAPRKGYNIYFQAMSSVEKETKTQCVRIATKAAATEEPEVIPDPAKQTDRVVKIAGISAGILVFILLLLVVIVIVKKSKLAKKRKDAMGNTRQEMTHMVNAMDRSYADQSTLHAEDPLSLTFMDQHNFSPRLPNDPLVPTAVLDENHSATAESSRLLDVPRYLCEGTESPYQTGQLHPAIRVADLLQHINLMKTSDSYGFKEEYESFFEGQSASWDVAKKDQNRAKNRYGNIIAYDHSRVILQPVEDDPSSDYINANYIDIWLYRDGYQRPSHYIATQGPVHETVYDFWRMVWQEQSACIVMVTNLVEVGRVKCYKYWPDDTEVYGDFKVTCVEMEPLAEYVVRTFTLERRGYNEIREVKQFHFTGWPDHGVPYHATGLLSFIRRVKLSNPPSAGPIVVHCSAGAGRTGCYIVIDIMLDMAEREGVVDIYNCVKALRSRRINMVQTEEQYIFIHDAILEACLCGETAIPVCEFKAAYFDMIRIDSQTNSSHLKDEFQTLNSVTPRLQAEDCSIACLPRNHDKNRFMDMLPPDRCLPFLITIDGESSNYINAALMDSYRQPAAFIVTQYPLPNTVKDFWRLVYDYGCTSIVMLNEVDLSQGCPQYWPEEGMLRYGPIQVECMSCSMDCDVINRIFRICNLTRPQEGYLMVQQFQYLGWASHREVPGSKRSFLKLILQVEKWQEECEEGEGRTIIHCLNGGGRSGMFCAIGIVVEMVKRQNVVDVFHAVKTLRNSKPNMVEAPEQYRFCYDVALEYLESS
notes: Full-length cDNA expressed in HeLa, COS, Drosophila S2 and rat L6 cells, tested on cells or in their lysates; It is partly cleaved at RTKR (640-643) into 110 kDa and 100 kDa products; also called RPTPase-κ; wt RPTPκ

Experiments:
[1] = target: B3; assay: cell-to-substrate adhesion, L6 cells on a K2AP-coated surface
[2] = target: B3; assay: cell-to-substrate adhesion, induced S2-R-PTP-κ cells on the coated dish
[3] = target: [32P]-tyrosine phosphorylated myelin basic protein; assay: cell-based or functional assay
Sequence of [32P]-tyrosine phosphorylated myelin basic protein (P02687 whole entry): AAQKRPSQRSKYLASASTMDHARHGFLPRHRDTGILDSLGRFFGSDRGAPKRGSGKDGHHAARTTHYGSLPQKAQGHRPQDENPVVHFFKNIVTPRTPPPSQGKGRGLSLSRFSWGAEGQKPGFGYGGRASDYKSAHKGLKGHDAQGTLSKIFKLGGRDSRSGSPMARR

[4] = target: the molecule itself; assay: co-aggregation of diI-labelled and unlabelled S2 cells, fluorescence microscopy
Source text: FIGS. 23A–23C. […] Two different cell populations, one of which had been labeled with the fluorescent dye diI (J. Schiessinger et al. Science 195, 307, (1977)), were allowed to co-aggregate and the resulting aggregates inspected by visible and fluorescence microscopy. diI-fluorescence is white in the photographs.

B1: K2AP fusion protein (amino acids 1-639 of the RPTPκ proprotein fused to human placental alkaline phosphatase) (other)
chain: ALGQFSAGGCTFDDGPGACDYHQDLYDDFEWVHVSAQEPHYLPPEMPQGSYMVVDSSNHDPGEKARLQLPTMKENDTHCIDFSYLLYSQKGLNPGTLNILVRVNKGPLANPIWNVTGFTGRDWLRAELAVSTFWPNEYQVIFEAEVSGGRSGYIAIDDIQVLSYPCDKSPHFLRLGDVEVNAGQNATFQCIATGRDAVHNKLWLQRRNGEDIPVAQTKNINHRRFAASFRLQEVTKTDQDLYRCVTQSERGSGVSNFAQLIVREPPRPIAPPQLLGVGPTYLLIQLNANSIIGDGPIILKEVEYRMTSGSWTETHAVNAPTYKLWHLDPDTEYEIRVLLTRPGEGGTGLPGPPLITRTKCAEPMRTPKTLKIAEIQARRIAVDWESLGYNITRCHTFNVTICYHYFRGHNESRADCLDMDPKAPQHVVNHLPPYTNVSLKMILTNPEGRKESEETIIQTDEDVPGPVPVKSLQGTSFENKIFLNWKEPLEPNGIITQYEVSYSSIRSFDPAVPVAGPPQTVSNLWNSTHHVFMHLHPGTTYQFFIRASTVKGFGPATAINVTTNISAPSLPDYEGVDASLNETATTITVLLRPAQAKGAPISAYQIVVEQLHPH
notes: Secreted from baculovirus-infected High-Five cells and about 90% pure; K2AP-a was eluted at alkaline pH and K2AP-b with 50% ethylene glycol; they are the same protein; also called K2AP-a; K2AP-b; not shown: human placental alkaline phosphatase, fused in-frame as a tag
fold increase in adhesive capacity (RPTPκ-overexpressing L6 cells against parental L6 cells) [1]: 2.7 fold

B2: secreted alkaline phosphatase (AP) control protein (enzyme, human, UniProt P05187 23-511, looked up)
chain: IIPVEEENPDFWNREAAEALGAAKKLQPAQTAAKNLIIFLGDGMGVSTVTAARILKGQKKDKLGPEIPLAMDRFPYVALSKTYNVDKHVPDSGATATAYLCGVKGNFQTIGLSAAARFNQCNTTRGNEVISVMNRAKKAGKSVGVVTTTRVQHASPAGTYAHTVNRNWYSDADVPASARQEGCQDIATQLISNMDIDVILGGGRKYMFRMGTPDPEYPDDYSQGGTRLDGKNLVQEWLAKRQGARYVWNRTELMQASLDPSVTHLMGLFEPGDMKYEIHRDSTLDPSLMEMTEAALRLLSRNPRGFFLFVEGGRIDHGHHESRAYRALTETIMFDDAIERAGQLTSEEDTLSLVTADHSHVFSFGGYPLRGSSIFGLAPGKARDRKAYTVLLYGNGPGYVLKDGARPDVTESESGSPEYRQQSAVPLDEETHAGEDVAVFARGPQAHLVHGVQEQTFIAHVMAFAACLEPYTACDLAPPAGTTDAAHPG
notes: About 50% pure; also called alkaline phosphatase control protein
binding result [2]: no binding (tested: 20 g/ml (so in the source) spotted)

B3
PTPase activity in immune complexes (release of [32P]-phosphate) [3]: ~3 fold | binding result [4]: binds
